What all share (assay): cell-based or functional assay
The target of experiment [1] is HIV-1 Env of pseudovirus BJOX015000.11.5 (clade CRF01_AE (T/F)) (HIV-1).
Experiment [2] deals with HIV-1 Env of pseudovirus T278-50 (clade CRF02_AG) (HIV-1).
Experiment [3] has as its target HIV-1 Env of pseudovirus P0402_c2_11 (clade G) (HIV-1).

On to 10-1074 (antibody), for which the IC50, titer in TZM.bl cells in experiment [1] is > 50 µg/mL; in experiment [2], 2.15 µg/mL; in experiment [3], 0.012 µg/mL. The IC80, titer in TZM.bl cells in experiment [1] was > 50 µg/mL; in experiment [2], 18.3 µg/mL; in experiment [3], 0.039 µg/mL.
In the case of 10E8 (antibody), the IC50, titer in TZM.bl cells in experiment [1] stood at 0.051 µg/mL; in experiment [2], 0.949 µg/mL; in experiment [3], 0.172 µg/mL. The values for the IC80, titer in TZM.bl cells in experiment [1], in experiment [2] and in experiment [3] were 1.91 µg/mL, 7.46 µg/mL and 3.29 µg/mL, respectively.
PG9 (antibody): the IC50, titer in TZM.bl cells in experiment [1] amounted to 0.322 µg/mL; in experiment [2], 0.393 µg/mL; in experiment [3] it was 0.296 µg/mL. Besides, the figures for the IC80, titer in TZM.bl cells in experiment [1], in experiment [2] and in experiment [3] were 1.49 µg/mL, 3.19 µg/mL and 2.37 µg/mL, respectively.
As for PG16 (antibody), the IC50, titer in TZM.bl cells in experiment [1] was found to be 3.13 µg/mL; in experiment [2] it was 0.227 µg/mL; in experiment [3] it was 0.025 µg/mL. The figures for the IC80, titer in TZM.bl cells in experiment [1], in experiment [2] and in experiment [3] were > 50 µg/mL, 18.6 µg/mL and 0.411 µg/mL, respectively.

Values taken from patent US20230002480A1.
